Test [1] addresses T1, β Amyloid peptide 1-40 (human, UniProt P05067 672-711).
T1 construct: domain: β Amyloid peptide 1-40; Biotinylated peptide 1-40 (Biosource) on avidin Sepharose only captured free antibody in KinExA; also called Aβ 1-40; human Aβ (1-40)
The experiment in a line: KinExA, Fab, equilibration 24 h. As for the experimental part:
(§1) Typical 1× concentrations were 10 pM of antibody active sites (0.75 ng/mL) and an upper antigen concentration of 100 pM (0.43 ng/mL). The samples were then allowed to equilibrate for 24-72 hours at room temperature. A KinExA™ instrument (Sapidyne) and standard KD run file were then used to determine the KD of the system. Briefly, the KinExA™ flow cell was charged with the β Amyloid peptide coated beads and washed with PBSA. For the first sample, free antibody in solution was captured by the beads washed with PBSA and detected using 1:250 Goat anti-human Cy5 (Jackson Immunochemicals) in PBSA. The flow cell was then flushed, re-charged with beads and the next sample analyzed. The process was repeated until all 12 samples were analyzed.
(§2) For KinExA™ kₒₙ and koff measurements, antigen and antibody were prepared as described above. Antigen and antibody samples at 2× active concentration were prepared in PBSA with 0.2% BSA. Samples were mixed 1:1 and the timing for the experiment started. Typical 1× concentrations were 1 nM antibody active site concentration ([…]) and 2 nM antigen (8.6 ng/mL). A KinExA™ instrument (Sapidyne) and a kineticsdirect run file were used to follow the reaction. Time for each measurement was determined using the manufacturer's instructions. Free antibody remaining in the reaction was captured using β amyloid coated beads packed into the flow cell washed with PBSA and detected at each time point using 1:250 Goat anti-human Cy5 (Jackson) in PBSA. The flow cell was then flushed and recharged with beads for the next measurement, the process continued until a complete decay curve obtained. The data was analyzed using the KinExA™ Inject software.
For orientation: In KinExA the mixture passes briefly over coated beads that capture the unbound partner.

The target in test [2] is T1, β Amyloid peptide 1-40. Description: BIAcore; against m266. The method, then:
(§3) BIAcore™ is an automated biosensor system that measures molecular interactions (Karlsson, et al. (1991) J. Immunol. Methods 145: 229-240). BIAcore™ analyses described herein were carried out at 25° C. In these experiments, antibody was immobilized at low density on a BIAcore™ CM5 or B1 chip. For the m266 antibody goat anti-mouse Fc (Jackson Immunoresearch) immobilized on CM5 in flow cell 2 was used for measuring binding constants. Goat anti-mouse was used as control antibody in flow cell 1. For the humanized antibodies, protein A or protein A/G was immobilized via amine coupling to flow cells 1 and 2 of a B1 or CM5 sensor chip.
(§4) Antibody was then captured only to flow cell 2 at desired levels (usually a 10-60 second injection of antibody) and allowed to stabilize for 5 minutes. For these experiments, a fresh aliquot of Aβ 1-40 was thawed and then diluted 1:10 in HBS-EP running buffer. The 1:10 dilution was used to make up a 200 nM Aβ solution which was serially diluted (1:2 dilutions) to a lowest concentration of 6.25 nM. Each concentration was injected over the surface for 5 minutes at a flow rate of 50 μl/min (250 μl total). The Aβ and antibody were eluted from both flow cells with a 40s injection of glycine pH 1.5. The signal is allowed to stabilize for 2 minutes before the next cycle. The data from flow cell 1 is subtracted from flow cell 2 to account for any bulk shifts due to buffer differences or non-specific binding to the sensor chip or Protein A. The various concentrations were injected randomly and each concentration was run in duplicate. Two control runs of buffer only were used to control for any dissociation of antibody from the capture surface. The data was analyzed using the Biaevalution™ software. A 1:1 model with mass transfer and a local Rmax was used as the best fit for the data.
Concentrations of human Aβ (1-40) from 200 nM to 1.6 nM in 2-fold serial dilution were used to obtain on-rate constant. The upper half of Table 6 represents determinations made with a first set of antibody preparations, while the lower half represents determinations made with a second set of antibody preparations

Test [3] has as its target T1, β Amyloid peptide 1-40. Description: BIAcore, mAb captured, Aβ 1-40 injected, second set of preparations. As for the experimental part:
as §3
Antibody was then captured only to flow cell 2 at desired levels (usually a 10-60 second injection of antibody) and allowed to stabilize for 5 minutes. For these experiments, a fresh aliquot of Aβ 1-40 was thawed and then diluted 1:10 in HBS-EP running buffer. The 1:10 dilution was used to make up a 200 nM Aβ solution which was serially diluted (1:2 dilutions) to a lowest concentration of 6.25 nM. Each concentration was injected over the surface for 5 minutes at a flow rate of 50 μl/min (250 μl total). The Aβ and antibody were eluted from both flow cells with a 40s injection of glycine pH 1.5. The signal is allowed to stabilize for 2 minutes before the next cycle. […] The data was analyzed using the Biaevalution™ software. […]

The target in test [4] is T1, β Amyloid peptide 1-40. The experiment in a line: KinExA, mAb, equilibration 16 h. As for the experimental part: as §1, with “The samples were then allowed to equilibrate for 24-72 hours at room temperature.” left out
as §2

Test [5] deals with T1, β Amyloid peptide 1-40. Description: KinExA, Fab, equilibration 16 h. The method, then: as §1, with “The samples were then allowed to equilibrate for 24-72 hours at room temperature.” left out
as §2

The target in test [6] is T1, β Amyloid peptide 1-40. The experiment in a line: KinExA, mAb; against m266. The method, then:
as §1

For test [7], the target named is T1, β Amyloid peptide 1-40. Description: BIAcore, mAb captured, Aβ 1-40 injected, first set of preparations. The method, then:
as §3, §4
Concentrations of human Aβ (1-40) from 200 nM to 1.6 nM in 2-fold serial dilution were used to obtain on-rate constant. […]
(In general: In SPR one partner is held on a chip, and binding of the other changes the refractive index at the surface.)

Test [8] concerns the target T1, β Amyloid peptide 1-40. Description: KinExA, mAb. As for the experimental part: as §1

T1 sequence (P05067 672-711 limits assumed): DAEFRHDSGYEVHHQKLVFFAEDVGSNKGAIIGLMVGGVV

B1: 1A1 Fab (Fab, V domains shown)
VH: EVQLVESGGGLVKPGGSLRLSCAASGYTFSRYSMSWVRQAPGKGLEWVGQINIRGNNTYYPDTVKGRFTISRDDSKNTLYLQMNSLKTEDTAVYYCTTGDFWGQGTLVTVSS
VL: DIVMTQTPLSLSVTPGQPASISCSSSQSLIYSDGNAYLHWYLQKPGQSPQLLIYKVSNRFSGVPDRFSGSGSGTDFTLKISRVEAEDVGVYYCTQSTHSPWTFGGGTKVEIK
notes: Fab clone
For orientation: Kd means the concentration at which binding is half-saturated. Read a low Kd as a tighter complex. As a reminder, the koff is a measure of how fast the partners let go of each other. Read a low koff as a long-lived complex. One may read the kon as a measure of how fast the partners come together. Read a low kon as slower complex formation. With B1, in test [1], the Kd came out at 1.9 pM, the koff worked out at 1.6e-06 s⁻¹ and the kon came out at 830000 M⁻¹ s⁻¹.

B2: 1A12 monoclonal antibody (IgG1) (antibody, V domains shown)
VH: EVQLVESGGGLVKPGGSLRLSCAASGFTFSRYSMSWVRQAPGKGLEWVGQINIRGNNTYYPDTVKGRFTISRDDSKNTLYLQMNSLKTEDTAVYYCTTGDFWGQGTLVTVSS
VL: DIVMTQTPLSLSVTPGQPASISCRSSQSLIYSDGNAYLHWYLQKPGQSPQLLIYKVSNRFSGVPDRFSGSGSGTDFTLKISRVEAEDVGVYYCSQSTHSPWTFGGGTKVEIK
In the case of B2, in test [2], the “Fold Increase (kon)” value was 3 fold. Besides, the kon in test [3] was determined as 410000 M⁻¹ s⁻¹.

B3: 1C5 monoclonal antibody (IgG1) (antibody, V domains shown)
VH: EVQLVESGGGLVKPGGSLRLSCAASGFTFSRYSMSWVRQAPGKGLEWVGQINSVANSTYYPDTVKGRFTISRDDSKNTLYLQMNSLKTEDTAVYYCTTGDFWGQGTLVTVSS
VL: DIVMTQTPLSLSVTPGQPASISCRSSQSLIYSDGNAYLHWYLQKPGQSPQLLIYKVSNRFSGVPDRFSGSGSGTDFTLKISRVEAEDVGVYYCSQSTHSPWTFGGGTKVEIK
In test [4], B3 registered a Kd of 973 pM, a koff of 0.000371 s⁻¹ and a kon of 420000 M⁻¹ s⁻¹.

B4: 1A12 Fab (Fab, V domains shown)
VH: EVQLVESGGGLVKPGGSLRLSCAASGFTFSRYSMSWVRQAPGKGLEWVGQINIRGNNTYYPDTVKGRFTISRDDSKNTLYLQMNSLKTEDTAVYYCTTGDFWGQGTLVTVSS
VL: DIVMTQTPLSLSVTPGQPASISCRSSQSLIYSDGNAYLHWYLQKPGQSPQLLIYKVSNRFSGVPDRFSGSGSGTDFTLKISRVEAEDVGVYYCSQSTHSPWTFGGGTKVEIK
notes: Fab clone
In test [5], B4 came in with a Kd of 10.8 pM, an off-rate constant (koff) of 1.72e-05 s⁻¹ and a kon of 1.59e+06 M⁻¹ s⁻¹.

B5: 1D4 monoclonal antibody (IgG1) (antibody, V domains shown)
VH: EVQLVESGGGLVKPGGSLRLSCAASGFTFSRYSMSWVRQAPGKGLEWVGQINSQGNSTYYPDTVKGRFTISRDDSKNTLYLQMNSLKTEDTAVYYCTTGDRWGQGTLVTVSS
VL: DIVMTQTPLSLSVTPGQPASISCRSSQSLIYSDGNAYLHWYLQKPGQSPQLLIYKVSNRFSGVPDRFSGSGSGTDFTLKISRVEAEDVGVYYCSQSTHSPWTFGGGTKVEIK
B5: the “Fold increase in affinity” value in test [6] came to 0.005 fold. Also, the “Fold Increase (kon)” value in test [2] is 4 fold. Also, in test [4], the Kd came out at 6310 pM, the koff came out at 0.00074 s⁻¹ and the kon is 120000 M⁻¹ s⁻¹. In test [7], the kon came to 470000 M⁻¹ s⁻¹. The molecule further returned a Kd in test [8] of 15100 pM.

B6: 6C3 monoclonal antibody (IgG1) (antibody, V domains shown)
VH: EVQLVESGGGLVKPGGSLRLSCAASGFTFSRYSMSWVRQAPGKGLEWVGQINSRGNSTYYPDTVKGRFTISRDDSKNTLYLQMNSLKTEDTAVYYCTTGDFWGQGTLVTVSS
VL: DIVMTQTPLSLSVTPGQPASISCRSSQSLIYSDGNAYLHWYLQKPGQSPQLLIYKVSNRFSGVPDRFSGSGSGTDFTLKISRVEAEDVGVYYCTQSTHSPWTFGGGTKVEIK
For B6, the “Fold Increase (kon)” value in test [2] is 5 fold. For the same molecule, in test [4], the affinity, expressed as Kd, was 7.9 pM; the koff was found to be 1.01e-05 s⁻¹; the kon stood at 1.28e+06 M⁻¹ s⁻¹. The same molecule showed a kon in test [3] of 610000 M⁻¹ s⁻¹.

B7: m266 Fab fragment (Fab, V domains shown)
VH: EVKLVESGGGLVQPGGSLKLSCAVSGFTFSRYSMSWVRQTPEKRLELVAQINSVGNSTYYPDTVKGRFTISRDNAEYTLSLQMSGLRSDDTATYYCASGDYWGQGTTLTVSS
VL: DVVMTQTPLSLPVSLGDQASISCRSSQSLIYSDGNAYLHWFLQKPGQSPKLLIYKVSNRFSGVPDRFSGSGSGTDFTLKISRVETEDLGVYFCSQSTHVPWTFGGGTKLEIK
In test [5], B7 registered a Kd of 138 pM, a koff of 4.96e-05 s⁻¹ and a kon of 360000 M⁻¹ s⁻¹.

The values above are taken from patent US20060110388A1 (APPLIED MOLECULAR EVOLUTION, published 2006).
